Data reported in US20240115744A1, “FIBRIN-BINDING COMPOUNDS FOR IMAGING AND TREATMENT” (Collagen Medical, LLC, priority 2019, published 2024).
One block for each molecule: values may come before it. *1 amine or outer side, *2 acyl side, *3 side chain or, on linkers, in order; H or OH if unused. Where a SMILES comes first, the peptide text is derived from it. Bridges are numbered along the chain shown (N, C = ends). [ ]: non-standard residue; d: D form. The star is where a group is joined. NODAGA = O=C(O)CN1CCN(CC(=O)O)CCN(C(CCC(=O)*)C(=O)O)CC1; Tyr(3-Cl) = N[C@@H](Cc1ccc(O)c(Cl)c1)C(=O)O; X1 = O=C([C@@H]1CC(O)CN1[*:1])[*:2]; Hyp = O=C(O)[C@@H]1C[C@@H](O)CN1

Tests used:
[1] = Radio-HPLC analysis of blood for identification of metabolites; assay type: in vivo; conditions: rat plasma 15 and 90 min after injection
Description: Adult male Wistar rats were anesthetized by isoflurane (1-2% in medical air). Body temperature was maintained at 37° C. using a thermo-regulated heating pad. The right femoral vein and artery were cannulated for compound injection and blood sampling, respectively. Endothelial injury was induced by crush injury to the right common carotid artery (1-2 cm proximal to the carotid bifurcation) by clamping the vessel with a hemostat for 5 minutes. Immediately following the surgical procedures, rats were placed in a micro-PET/CT scanner. Compound (200-600 μL) was injected, PET-CT images were acquired, and blood samples were drawn from the femoral artery prior to compound injection and at 2, 5, 10, 15, 30, 60, 90, 120 min post injection. Tissues were harvested at the end for ex vivo analyses.
Aliquots of the 15 and 90 min plasma samples were injected into a HPLC and fractions were collected each 30 seconds. The fractions counted were compared to pure compound injected into the same column in order to identify the number of metabolites and the fraction of intact compound circulating at each time point.

[2] = target: T1, human fibrin (human, UniProt P02671 36-629; P02675 45-491; P02679 27-437, limits assumed); experiment: radioactivity plate assay on immobilized human fibrin, in TBS buffer
T1 construct: also called clotted fibrin; immobilized fibrin
T1 sequence (looked up) 1: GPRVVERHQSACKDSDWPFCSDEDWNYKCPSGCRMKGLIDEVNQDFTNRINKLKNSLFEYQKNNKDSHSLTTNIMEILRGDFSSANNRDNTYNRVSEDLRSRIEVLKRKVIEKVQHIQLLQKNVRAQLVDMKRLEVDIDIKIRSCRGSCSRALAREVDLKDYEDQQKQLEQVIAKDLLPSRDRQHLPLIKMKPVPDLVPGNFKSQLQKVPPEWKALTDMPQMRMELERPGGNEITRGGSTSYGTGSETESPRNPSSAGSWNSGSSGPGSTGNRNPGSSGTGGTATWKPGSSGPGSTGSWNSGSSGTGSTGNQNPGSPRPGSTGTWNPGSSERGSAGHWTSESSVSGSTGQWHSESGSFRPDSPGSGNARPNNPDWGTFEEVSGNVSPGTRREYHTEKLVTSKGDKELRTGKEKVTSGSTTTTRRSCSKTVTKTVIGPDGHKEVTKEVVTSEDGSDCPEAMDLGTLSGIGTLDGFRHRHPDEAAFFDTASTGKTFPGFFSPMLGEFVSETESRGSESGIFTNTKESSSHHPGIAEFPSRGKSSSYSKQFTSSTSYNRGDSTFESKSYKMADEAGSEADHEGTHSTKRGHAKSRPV
T1 sequence (looked up) 2: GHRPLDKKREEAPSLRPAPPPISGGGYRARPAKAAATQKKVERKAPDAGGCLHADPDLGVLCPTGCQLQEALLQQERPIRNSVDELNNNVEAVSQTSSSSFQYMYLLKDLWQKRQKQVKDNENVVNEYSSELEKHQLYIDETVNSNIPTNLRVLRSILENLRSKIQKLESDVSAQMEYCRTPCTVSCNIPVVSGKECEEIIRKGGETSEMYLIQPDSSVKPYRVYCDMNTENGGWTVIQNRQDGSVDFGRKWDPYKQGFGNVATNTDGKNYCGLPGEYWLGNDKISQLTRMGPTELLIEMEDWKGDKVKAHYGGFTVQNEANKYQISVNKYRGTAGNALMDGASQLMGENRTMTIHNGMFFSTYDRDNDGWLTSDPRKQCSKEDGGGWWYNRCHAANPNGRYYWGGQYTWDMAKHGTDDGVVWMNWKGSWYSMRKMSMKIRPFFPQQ
T1 sequence (looked up) 3: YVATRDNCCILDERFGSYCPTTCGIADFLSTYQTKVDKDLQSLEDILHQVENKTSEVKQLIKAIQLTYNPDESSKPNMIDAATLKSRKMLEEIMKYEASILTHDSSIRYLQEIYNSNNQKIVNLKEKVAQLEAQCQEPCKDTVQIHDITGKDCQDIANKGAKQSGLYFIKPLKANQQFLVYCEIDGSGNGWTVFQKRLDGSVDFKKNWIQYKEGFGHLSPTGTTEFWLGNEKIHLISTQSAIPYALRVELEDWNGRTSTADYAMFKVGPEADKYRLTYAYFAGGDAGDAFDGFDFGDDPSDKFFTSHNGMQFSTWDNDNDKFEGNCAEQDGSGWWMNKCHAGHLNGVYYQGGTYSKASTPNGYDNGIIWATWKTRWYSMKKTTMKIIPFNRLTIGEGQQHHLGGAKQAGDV
Description: Human fibrinogen (1 g) was dissolved in 30 mL of TBS buffer (50 mM Tris, 150 mM NaCl, 5 mM sodium citrate, pH 7.4) and dialyzed in a Slyde-a-Lyzer (20 000 MWCO, Cassette G2) at room temperature. After two changes of buffer, the fibrinogen was centrifuged (10 min, 2000×g) to remove undissolved material. Fibrinogen concentration was determined by measuring the absorbance at 280 nm. Stock fibrinogen solution concentration was 32.1 mg/mL. Fibrin plates with alternating rows of clotted fibrin and empty wells were prepared by polymerizing fibrinogen (100 μL; 2.5 mg/mL) with thrombin (1 U/mL) in TBS·citrate supplemented with 7 mM CaCl₂ in the wells of a 96 well polystyrene microtiter plate (Immulon-II®). […] Clottable protein in individual fibrinogen batches was determined by measuring 280 nm absorbance of the soluble fraction of the solution before and after thrombin treatment, and was generally ≥96% (Fibrin concentration, 7.56 μM).
An aliquot (100 μL) from a known activity (52 μCi in 10 mL TBS buffer) of Compound ¹⁸F-7 was added to a series of 12 known concentrations (0.01-50 μM) of cold Compound 7 (550 μL) in TBS buffer and mixed well to prepare 12 stock solutions. […] All aliquots from supernatants as well as an aliquot (90 μL) from each stock solution were weighed and activity of each was measured using a Cobra 5002 gamma counter. […]

[3] = target: T1, human fibrin; experiment: radioactivity plate assay on immobilized human fibrin, in human plasma

metabolites / intact compound in blood [1]: rapidly formed metabolites
Molecule: CC[C@H](C)[C@H](NC(=O)[C@H](Cc1ccc(O)cc1)NC(=O)[C@@H]1CSSC[C@H](NC(=O)[C@@H](CCC(=O)O)NC(=O)[C@H](Cc2ccc(O)cc2)NC(=O)CCC(C(=O)O)N2CCN(CC(=O)O)CCN(CC(=O)O)CC2)C(=O)N2CC(O)C[C@H]2C(=O)N[C@@H](Cc2ccc(O)c(Cl)c2)C(=O)NCC(=O)N[C@@H](CC(C)C)C(=O)N1)C(=O)N[C@@H](CCC(N)=O)C(N)=O (stereo partly drawn) [Compound ^68Ga-16, metal not drawn] ({NODAGA}-Y[dE]C[X1][Tyr(3-Cl)]GLCYIQ-NH2; disulfide 3-8)

Kd [2]: 1600 nM
Kd [3]: 1800 nM
B1: Compound 18F-7 (peptide)
peptide: {6‑(18F)fluoronicotinoyl}-Y[dE]C[Hyp][Tyr(3-Cl)]GLCYIQ-NH2
modifications: disulfide 3-8
notes: In the plate assay the tracer was mixed with 0.01-50 µM cold Compound 7; also called the fluorine-18 form of Compound 7
